Test results as given in patent publication US20210340209A1 (IMMUNE TARGETING, published 2021).

Molecular target: T1, human IL-2 mutant V1 (human, UniProt P60568 21-153)
T1 construct: Mutein found by yeast surface display screen; the ELISA format (any tag or Fc) is not described; also called IL-2 mutein
T1 chain: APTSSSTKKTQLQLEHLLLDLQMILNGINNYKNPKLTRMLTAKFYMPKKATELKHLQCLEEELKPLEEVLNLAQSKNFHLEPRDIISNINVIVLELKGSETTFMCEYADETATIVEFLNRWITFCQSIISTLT
Assay: ELISA

fold stronger binding than to IL-2 WT: ~20 times
B1: human IL-2R beta (receptor)
chain: AVNGTSQFTCFYNSRANISCVWSQDGALQDTSCQVHAWPDRRRWNQTCELLPVSQASWACNLILGAPDSQKLTTVDIVTLRVLCREGVRWRVMAIQDFKPFENLRLMAPISLQVVHVETHRCNISWEISQASHYFERHLEFEARTLSPGHTWEEAPLLTLKQKQEWICLETLTPDTQYEFQVRVKPLQGEFTTWSPWSQPLAFRTKPAALGKDT
notes: Soluble IL-2R beta reagent, titrated on yeast and used in ELISA; also called IL-2 receptor beta
